Reference: publication PMC10980799, “The transcription of the main gene associated with Treacher–Collins syndrome (TCOF1) is regulated by G-quadruplexes and cellular nucleic acid binding protein (CNBP)”

Key:
CNBP [1] = target: T1, CNBP (Homo sapiens, UniProt P62633 1-177); experiment: EMSA; 100 mM Li+; apparent Kd, SEM, n=3; EMSA: 20 mM HEPES pH 8.0, 10 mM MgCl2, 1 mM EDTA, 0.5 ug/ul heparin, 1 mM DTT, 1 ug/ul BSA, 10% glycerol, 100 mM KCl or LiCl, probe 0.75 uM, 30 min at 37 C; CNBP diluted in 50 mM Tris-HCl pH 7.5, 300 mM NaCl, 1 mM DTT, 5 mM imidazole, 0.1 mM ZnCl2; conditions: protein: recombinant; tags: tag-free (from pET-32a-TEV-CNBP, tag removed); label: none (SYBR Gold stain); single strand, unfolded
T1 sequence (P62633 whole entry): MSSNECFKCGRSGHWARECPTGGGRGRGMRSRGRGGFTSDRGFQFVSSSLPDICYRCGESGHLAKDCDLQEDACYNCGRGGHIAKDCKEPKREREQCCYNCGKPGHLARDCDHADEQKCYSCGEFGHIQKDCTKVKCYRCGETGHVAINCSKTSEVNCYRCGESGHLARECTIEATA

CNBP [2] = target: T1, CNBP; experiment: EMSA; 100 mM K+; apparent Kd, SEM, n=3; EMSA: 20 mM HEPES pH 8.0, 10 mM MgCl2, 1 mM EDTA, 0.5 ug/ul heparin, 1 mM DTT, 1 ug/ul BSA, 10% glycerol, 100 mM KCl or LiCl, probe 0.75 uM, 30 min at 37 C; CNBP diluted in 50 mM Tris-HCl pH 7.5, 300 mM NaCl, 1 mM DTT, 5 mM imidazole, 0.1 mM ZnCl2; conditions: protein: recombinant, tags: tag-free (from pET-32a-TEV-CNBP, tag removed), label: none (SYBR Gold stain)

| Binder | Kd (CNBP [1]) [nM] | Kd (CNBP [2]; parallel G4) [nM] | other results |
| --- | --- | --- | --- |
| GTGTATGTGGGGGGGGGGGGCGGGTGGTAG (ssDNA) [Hs2160 unfolded (Li+)] | 287 ± 100 | – | – |
| TGGGGTGGGGTGAGGTGGGGAAGAGGGAAC (structured_DNA) [Hs791 folded as G4 (K+)] | – | 271 ± 70 | – |
| TGGGGTGGGGTGAGGTGGGGAAGAGGGAAC (ssDNA) [Hs791 unfolded (Li+)] | 199 ± 55 | – | – |
| TGCTGGTGGTCATGGGGGAGTGGAGAGCAT (ssDNA) [Dr2393 unfolded (Li+)] | 257 ± 70 | – | – |
| GTGTATGTGGGGGGGGGGGGCGGGTGGTAG (structured_DNA) [Hs2160 folded as G4 (K+)] | – | 431 ± 120 | – |
| TGCTGGTGGTCATGGGGGAGTGGAGAGCAT (structured_DNA) [Dr2393 folded as G4 (K+)] | – | – | Kd (CNBP [2]; G4): 331 ± 80 nM |
